The target in the experiment is H3(1-282)-strep tag Ⅱ-NGL (monkeypox virus (MPXV)). The experiment can be described thus: BLI; […]; PBS; 100 s association, 120 s dissociation; global fit. The conditions noted are these: both partners purified.

B1: AI-Poxblock723-strep tag Ⅱ-His8 (designed binder)
chain: MGLKKLQELKKKANELGKKAKEALDKGDFEKAKEYIKKGAEATKEYGELSGNKAAIEDGEKAEEVAEEIVKIAKEEKAKERSGGGGSGGGGS
notes: source: E. coli BL21(DE3), pET30a, purified (STarm Streptactin), exchanged into PBS
Regarding B1, the Kd came out at 9 µM.
